Test results taken from FireProtDB (doi:10.1021/bi034132r).
“And” between values parts separate entries of the source, which are not always exact repeats. Equal entries are not always repeated.

Settings: Saccharomyces cerevisiae (strain ATCC 204508 / S288c), pH 7, 25 °C, GdnHCl, CD, phosphate 0.1 M, reversible: yes

Chain of Cytochrome c isoform 1 wild type, P00044 (P00044 whole entry, canonical isoform): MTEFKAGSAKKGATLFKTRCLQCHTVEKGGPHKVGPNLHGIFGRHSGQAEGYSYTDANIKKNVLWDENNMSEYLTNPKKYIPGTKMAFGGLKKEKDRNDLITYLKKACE
Chain of Cytochrome c isoform 1 H39Y, P00044 (P00044 whole entry H39Y, canonical isoform): as the sequence (P00044 whole entry, canonical isoform) above, with H39Y counted along it
Chain of Cytochrome c isoform 1 H32Y, P00044 (P00044 whole entry H32Y, canonical isoform): as the sequence (P00044 whole entry, canonical isoform) above, with H32Y counted along it

Substance | denaturant m value | denaturant midpoint (higher = more stable) [M] | unfolding free energy | ddG of mutation (higher = less stable) (structure 1YCC) | denaturant m value (structure 1YCC) | denaturant midpoint (higher = more stable) (structure 1YCC) | unfolding free energy (structure 1YCC)
Cytochrome c isoform 1 wild type, P00044 | 2.96 kcal/mol/M and 2.94 kcal/mol/M | 1.8 | 5.35 kcal/mol and 5.31 kcal/mol |  |  |  | 
Cytochrome c isoform 1 H32Y, P00044 |  |  |  | 1.82 kcal/mol and 2.1 kcal/mol | 2.41 kcal/mol/M and 2.39 kcal/mol/M | 1.4 M and 1.1 M | 3.54 kcal/mol and 3.2 kcal/mol
Cytochrome c isoform 1 H39Y, P00044 |  |  |  | 0.6 kcal/mol | 2.87 kcal/mol/M | 1.6 M | 4.71 kcal/mol
